In patent US20250197491A1 (MACOMICS, published 2025):
Where a chain is given by its changes, count along the chain named.

B1: Antibody 1 (antibody, V domains shown)
VH: QVQLVESGGGLVKPGGSLRLSCAASGFTFSDYYMSWIRQAPGKGLEWVSYISSSGSIKKYADSVKGRFTISRDNAKNSLYLQMNSLRGEDTAVYYCARTNWHFDYWGQGTLVTVSS
VL: EIVLTQSPGTLSLSPGERATLSCRASQSVSSSYLAWYQQKPGQAPRLLIFGASTRATGIPDRFSGSGSGTDFTLTISRLEPEDVAVYYCQQYYSTPFTFGPGTKVDIK
notes: Fully human antibody expressed in CHO; also called Clone 1; Antibody Clone 1
B2: Antibody 3 (antibody, V domains shown)
VH: QVQLVQSGAEVKKPGASVKVSCKASGYTFTSYGISWVRQAPGQGLEWMGWISAYNGNTNYAQKLQGRVTMTTDTSTSTAYMELRSLRSDDTAVYYCARSYSGSHWWFDPWGQGTLVTVSS
VL: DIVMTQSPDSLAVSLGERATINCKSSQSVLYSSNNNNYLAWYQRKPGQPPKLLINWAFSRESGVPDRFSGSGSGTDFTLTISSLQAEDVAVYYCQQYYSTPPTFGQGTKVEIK
notes: Fully human antibody; IgG4; also called Clone 3; Antibody Clone 3
B3: Antibody 4 (antibody, V domains shown)
VH: B2 VH with H104Y
VL: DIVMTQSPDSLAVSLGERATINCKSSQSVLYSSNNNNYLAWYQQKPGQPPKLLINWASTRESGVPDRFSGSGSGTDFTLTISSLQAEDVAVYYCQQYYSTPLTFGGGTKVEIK
notes: Fully human antibody; IgG4; also called Clone 4; Antibody Clone 4
B4: Antibody 5 (antibody, V domains shown)
VH: QVQLVESGGGLVKPGGSLRLSCAASGFTFSDYYMTWIRQAPGKGLEWVSYISISGITRYYADSVKGRFTISRDNAKNSLYLQMNSLRAEDTAVYYCARDQTGYFDYWGQGTLVTVSS
VL: DIVMTQSPATLSVSPGEKTTLSCRASQSFSSNLAWYQQKPGQAPRLLIYGASTRATGIPARFSGSGSGTEFTLTISSLQSEDFAVYYCQQYINWPHTFGQGTKVEIK
notes: Fully human antibody; IgG4; also called Clone 5; Antibody Clone 5

Molecular target: T1, human LILRB1 ectodomain fused to mIgG2a Fc (human)
T1 construct: also called human LILRB1-mIgG2a; full length LILRB1 ectodomain
Experiment: summary table (ELISA); Y = Yes

T1 sequence (chain, as listed by the source limits assumed): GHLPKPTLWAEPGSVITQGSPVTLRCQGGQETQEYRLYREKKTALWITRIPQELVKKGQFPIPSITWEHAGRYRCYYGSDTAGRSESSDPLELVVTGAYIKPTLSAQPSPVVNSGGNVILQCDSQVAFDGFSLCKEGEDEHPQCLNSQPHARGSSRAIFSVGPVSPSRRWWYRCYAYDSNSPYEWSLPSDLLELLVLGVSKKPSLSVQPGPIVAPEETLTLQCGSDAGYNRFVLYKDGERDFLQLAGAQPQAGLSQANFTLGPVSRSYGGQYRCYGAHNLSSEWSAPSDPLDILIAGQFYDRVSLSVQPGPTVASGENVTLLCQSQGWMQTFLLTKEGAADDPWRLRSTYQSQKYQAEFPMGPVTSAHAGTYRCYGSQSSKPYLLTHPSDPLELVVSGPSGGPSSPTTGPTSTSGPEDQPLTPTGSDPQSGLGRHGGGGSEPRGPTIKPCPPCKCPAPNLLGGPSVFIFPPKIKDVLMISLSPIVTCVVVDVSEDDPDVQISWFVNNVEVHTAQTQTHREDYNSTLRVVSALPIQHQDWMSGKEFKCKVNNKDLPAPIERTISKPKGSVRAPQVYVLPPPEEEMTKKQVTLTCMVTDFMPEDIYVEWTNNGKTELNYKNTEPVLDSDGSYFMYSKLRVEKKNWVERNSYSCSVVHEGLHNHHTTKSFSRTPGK

Binding result, binds:
B1
B2
B3
B4

Molecular target: T2, Human LILRB1(L68P/A93T) ectodomain fused to mIgG2aFc (human)
T2 construct: The entry already carries the two substitutions
Experiment: ELISA, antigen coated, 10 nM antibody
Text: (§1) FIG. 3. Mixed LILRB1 and LILRB2 expression in TAMs from melanoma cancer patients. Analysis of LILRB1 and LILRB2 detection in macrophages in pre- and post-anti-PD-1 and/or anti-CTLA-4 therapy treated melanoma patients (n=33) is shown using Smart-seq2 data from Sade-Feldman et al. https://pubmed.ncbi.nlm.nih.gov/30633907/FIG. 4. Binding to domains of human LILRB1. Plates were coated with recombinant full length LILRB1 ectodomain (SEQ ID NO: 41) or a protein comprising domain 1 and 2 of human LILRB1 protein (SEQ ID NO: 42), and then incubated with 10 nM Clones 1-5, Reference Ab 1, and Isotype control. The bound antibodies were detected using HRP-labeled secondary antibodies and the results were plotted on the graph as absorbance measured at 450 nm.
(§2) Binding to allelic forms of LILRB1. There are 4 major allelic variants of human LILRB1 protein ectodomain. The variants of LILRB1 were expressed as recombinant proteins comprising a modified LILRB1 ectodomain and mouse IgG2 Fc region (SEQ ID NO: 50 and 51) in suspension CHO cells, and purified by using techniques that were known in the art. These recombinant proteins were then used in the direct enzyme-linked immunosorbent assay (ELISA) to determine the antibodies potential to bind different allelic forms of LILRB1. In short, Maxisorp (Nunc) or similar immune-assay plates were coated with solutions of target proteins in PBS, at 4° C., overnight. Plates were then washed with PBS, blocked with 5% milk in PBS, and washed again. Test antibodies diluted in PBS were then added to the plates and incubated at room temperature for at least 1h. Plates were subsequently washed with PBS/0.05% Tween-20 (PBST) and incubated with a solution of horse radish peroxidase (HRP) labelled secondary antibodies at room temperature for at least 1 h. After washing with PBST and PBS, bound antibodies were detected using the 3,3′,5,5;-tetramethylbenzidine (TMB) chromogenic solution. After 5 to 10 minutes, the reaction was stopped with 1% sulphuric acid and absorbance read at 450 nm.
(§3) There are four major allelic variants within the ecto-domain of LILRB1 in human population [Human Molecular Genetics, 2005, Vol. 14, 2469-2480]; namely c.203T>C (L68P), c.277G>A (A93T), c.425T>C (I142T), and c.464G>T (S155I).

T2 sequence (chain, as listed by the source L68P A93T L68P A93T limits assumed): as the sequence (chain, as listed by the source limits assumed) above, with L45P, A70T counted along it

Binding result, binds:
B1
B2
B3
B4

Molecular target: T3, Human LILRB1(I142T/S155I) ectodomain fused to mIgG2aFc (human)
T3 construct: The entry already carries the two substitutions
Experiment: ELISA, antigen coated, 10 nM antibody
Text: as §1, §2, §3

T3 sequence (chain, as listed by the source I142T S155I I142T S155I limits assumed): as the sequence (chain, as listed by the source limits assumed) above, with I119T, S132I counted along it

Binding result, binds:
B1
B2
B3
B4
